The target in one assay is CD20 (UniProt P11836). Description: cell-based or functional assay.
Assay [1] deals with CD74 (invariant chain, Ii) (human) (UniProt P04233). Description: cell-based or functional assay.
CD74 (invariant chain, Ii) (human), sequence (P04233 whole entry, change not shown): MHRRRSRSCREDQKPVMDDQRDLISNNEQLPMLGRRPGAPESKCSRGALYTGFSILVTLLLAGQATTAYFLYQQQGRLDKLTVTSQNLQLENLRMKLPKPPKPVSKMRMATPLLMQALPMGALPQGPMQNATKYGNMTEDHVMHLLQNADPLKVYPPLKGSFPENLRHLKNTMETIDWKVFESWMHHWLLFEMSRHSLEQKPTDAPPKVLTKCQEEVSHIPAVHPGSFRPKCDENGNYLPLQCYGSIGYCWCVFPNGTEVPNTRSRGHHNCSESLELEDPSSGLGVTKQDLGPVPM

CD20, sequence (P11836 whole entry): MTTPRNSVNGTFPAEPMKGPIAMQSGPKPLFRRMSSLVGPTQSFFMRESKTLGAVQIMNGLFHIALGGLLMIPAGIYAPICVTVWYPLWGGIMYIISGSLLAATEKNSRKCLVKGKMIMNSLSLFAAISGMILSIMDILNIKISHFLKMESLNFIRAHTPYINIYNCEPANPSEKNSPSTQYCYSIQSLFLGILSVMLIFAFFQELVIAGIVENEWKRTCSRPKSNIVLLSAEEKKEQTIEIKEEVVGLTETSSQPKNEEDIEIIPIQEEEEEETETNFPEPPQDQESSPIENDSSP

In the assay with CD20, “20-Rap (hA20 IgG-AD2 with four copies of Rap-DDD2)” came in with an in vitro cytotoxicity EC50, Daudi and Ramos NHL cell lines of 0.1 nM; an in vitro cytotoxicity EC50, Jeko-1 mantle cell lymphoma line of 0.02 nM.
In assay [1], “milatuzumab (humanized anti-CD74 LL1 antibody)” yielded a reduction of live B cells in human PBMCs after 3 days with antibody, flow cytometry of 22% and a reduction of live mDC2 in human PBMCs after 3 days with antibody, flow cytometry of 53.8%.

Values taken from patent US20130164214A1.
